Source: patent EP4613859A1, “TLR SIGNALING INHIBITORY PEPTIDE AND COMPOSITION INCLUDING SAME FOR PREVENTION OR TREATMENT OF INFLAMMATORY DISEASES” (Korea Institute of Science and Technology, priority 2022, dated 2025)
Blank lines part the entries; values can stand above or below the binder they belong to.

How the values were obtained:
human MAL (human) [1] = biological target: human MAL (human) (UniProt P58753); assay: P8 phage display panning on plate-immobilised MAL, after round 4, NGS
human MyD88 (human) [2] = biological target: human MyD88 (human) (UniProt Q99836); assay: P3 phage display panning on plate-immobilised MyD88, after round 4, NGS
Chain of UniProt Q99836 (Q99836 155-296 limits assumed): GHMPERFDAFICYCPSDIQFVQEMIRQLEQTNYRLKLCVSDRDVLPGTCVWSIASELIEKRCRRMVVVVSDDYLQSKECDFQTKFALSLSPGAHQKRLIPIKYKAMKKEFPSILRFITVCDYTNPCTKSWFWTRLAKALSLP

human MAL (human) [3] = biological target: human MAL (human) (UniProt P58753); assay: P3 phage display panning on plate-immobilised MAL, after round 4, NGS
human MyD88 (human) [4] = biological target: human MyD88 (human) (UniProt Q99836); assay: P8 phage display panning on plate-immobilised MyD88, after round 4, NGS

Chain of UniProt P58753 (P58753 79-221 limits assumed): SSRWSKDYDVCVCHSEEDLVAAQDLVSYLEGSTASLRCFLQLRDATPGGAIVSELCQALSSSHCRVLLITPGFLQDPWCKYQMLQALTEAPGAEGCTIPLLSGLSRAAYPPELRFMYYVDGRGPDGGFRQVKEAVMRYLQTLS

B1: … (peptide)
peptide: DFLNWFIALKSTVIEN
NGS count (human MAL (human) [1]): 867 count
Population (human MAL (human) [1]): 0.27%

B2: … (peptide)
peptide: HLLKEFDKKLITAFKD
NGS count (human MyD88 (human) [2]): 2400 count
Population (human MyD88 (human) [2]): 0.7%

B3: … (peptide)
peptide: LKVESWRQALEKAGKL
NGS count (human MyD88 (human) [2]): 16800 count
Population (human MyD88 (human) [2]): 4.91%
NGS count (human MAL (human) [3]): 5180 count
Population (human MAL (human) [3]): 2.32%

B4: … (peptide)
peptide: LVAHEISKKMKIFATI
NGS count (human MyD88 (human) [2]): 17500 count
Population (human MyD88 (human) [2]): 5.08%
NGS count (human MAL (human) [3]): 1670 count
Population (human MAL (human) [3]): 0.63%

B5: … (peptide)
peptide: KFIWDIINAISSQIRV
NGS count (human MAL (human) [1]): 146 count
Population (human MAL (human) [1]): 0.05%

B6: … (peptide)
peptide: AFFWEQLRTVLGKPTM
NGS count (human MAL (human) [1]): 11800 count
Population (human MAL (human) [1]): 3.65%

B7: … (peptide)
peptide: QLIQQWIELHLHQLHL
NGS count (human MyD88 (human) [4]): 1600 count
Population (human MyD88 (human) [4]): 0.62%
NGS count (human MAL (human) [1]): 9390 count
Population (human MAL (human) [1]): 2.9%

B8: … (peptide)
peptide: EWIREQLRPALKERLP
NGS count (human MyD88 (human) [2]): 16800 count
Population (human MyD88 (human) [2]): 4.9%
NGS count (human MAL (human) [3]): 2350 count
Population (human MAL (human) [3]): 0.88%

B9: … (peptide)
peptide: WALQELVKILQAKIFL
NGS count (human MAL (human) [1]): 227 count
Population (human MAL (human) [1]): 0.07%

B10: … (peptide)
peptide: ESILNQLRRSSQSIAN
NGS count (human MyD88 (human) [2]): 1980 count
Population (human MyD88 (human) [2]): 0.58%
NGS count (human MAL (human) [3]): 3680 count
Population (human MAL (human) [3]): 1.38%

B11: … (peptide)
peptide: AFFWAQLKSVLGNPTM
NGS count (human MAL (human) [1]): 28800 count
Population (human MAL (human) [1]): 8.9%

B12: … (peptide)
peptide: PSEVRKQTGSLAKAFA
NGS count (human MyD88 (human) [2]): 2250 count
Population (human MyD88 (human) [2]): 0.66%

B13: … (peptide)
peptide: TSHLHHALRLNKIETF
NGS count (human MyD88 (human) [2]): 2080 count
Population (human MyD88 (human) [2]): 0.6%

B14: … (peptide)
peptide: SEFIQKIILWMNPKIV
NGS count (human MAL (human) [1]): 4460 count
Population (human MAL (human) [1]): 1.38%

B15: … (peptide)
peptide: YYLDPSHLRKQSGEFG
NGS count (human MyD88 (human) [2]): 2540 count
Population (human MyD88 (human) [2]): 0.74%

B16: … (peptide)
peptide: KEVEGWRDALTKVASL
NGS count (human MyD88 (human) [2]): 5190 count
Population (human MyD88 (human) [2]): 1.8%
NGS count (human MAL (human) [3]): 3760 count
Population (human MAL (human) [3]): 1.41%

B17: … (peptide)
peptide: LFFWESLKQLLRSDGR
NGS count (human MAL (human) [1]): 22600 count
Population (human MAL (human) [1]): 5.97%

B18: … (peptide)
peptide: SLLYDHLRWLGIRAFL
NGS count (human MAL (human) [1]): 2580 count
Population (human MAL (human) [1]): 0.8%

B19: … (peptide)
peptide: RNFVAYLFQALANKGI
NGS count (human MAL (human) [1]): 28000 count
Population (human MAL (human) [1]): 8.63%

B20: … (peptide)
peptide: FTLAVHVRNWLVGGFI
NGS count (human MAL (human) [1]): 520 count
Population (human MAL (human) [1]): 0.19%

B21: … (peptide)
peptide: KLFWEKFKEFFLPSLSR
NGS count (human MAL (human) [1]): 4890 count
Population (human MAL (human) [1]): 1.51%

B22: … (peptide)
peptide: WFYERLVSLILRDTKV
NGS count (human MAL (human) [1]): 79000 count
Population (human MAL (human) [1]): 24.4%

B23: … (peptide)
peptide: TFLGHLYNALVQAGIH
NGS count (human MAL (human) [1]): 24700 count
Population (human MAL (human) [1]): 7.64%

B24: … (peptide)
peptide: NQWRNALTAAANLSGW
NGS count (human MAL (human) [1]): 848 count
Population (human MAL (human) [1]): 0.26%
NGS count (human MyD88 (human) [2]): 28700 count
Population (human MyD88 (human) [2]): 8.35%
NGS count (human MAL (human) [3]): 25800 count
Population (human MAL (human) [3]): 9.71%

B25: … (peptide)
peptide: YAFTGHLHRYLVQRGV
NGS count (human MyD88 (human) [2]): 13400 count
Population (human MyD88 (human) [2]): 3.91%
NGS count (human MAL (human) [3]): 43800 count
Population (human MAL (human) [3]): 16.4%

Further lines, results first:

NGS count (human MAL (human) [1]): 232 count
Population (human MAL (human) [1]): 0.07%
B26: … (peptide)
peptide: AWALHQLQQIINWHET

NGS count (human MAL (human) [1]): 17200 count
Population (human MAL (human) [1]): 5.31%
B27: … (peptide)
peptide: YFLHFLLFSRPETEYI

NGS count (human MyD88 (human) [2]): 2890 count
Population (human MyD88 (human) [2]): 0.84%
NGS count (human MAL (human) [3]): 2680 count
Population (human MAL (human) [3]): 1.01%
B28: … (peptide)
peptide: YNFISHLYDALHRNRI

NGS count (human MyD88 (human) [2]): 8540 count
Population (human MyD88 (human) [2]): 2.49%
NGS count (human MAL (human) [3]): 3260 count
Population (human MAL (human) [3]): 1.22%
B29: … (peptide)
peptide: KNLFNELVSKNIRTFM

NGS count (human MyD88 (human) [2]): 8820 count
Population (human MyD88 (human) [2]): 2.57%
NGS count (human MAL (human) [3]): 1840 count
Population (human MAL (human) [3]): 0.69%
B30: … (peptide)
peptide: NELVHVWSSKANSLVG

NGS count (human MAL (human) [1]): 295 count
Population (human MAL (human) [1]): 0.09%
B31: … (peptide)
peptide: YLISYIFNELARAGFS

NGS count (human MAL (human) [1]): 3620 count
Population (human MAL (human) [1]): 1.12%
B32: … (peptide)
peptide: HFFWIQLKSILGETSF

NGS count (human MyD88 (human) [2]): 2450 count
Population (human MyD88 (human) [2]): 0.71%
B33: … (peptide)
peptide: RKGDLISDELLIAIEE

NGS count (human MAL (human) [1]): 3120 count
Population (human MAL (human) [1]): 0.96%
B34: … (peptide)
peptide: RNNFIGHLYQALYRIG

NGS count (human MAL (human) [1]): 5620 count
Population (human MAL (human) [1]): 1.74%
NGS count (human MyD88 (human) [2]): 2460 count
Population (human MyD88 (human) [2]): 0.72%
B35: … (peptide)
peptide: DTKLKKGESIAPELLR

NGS count (human MAL (human) [1]): 51100 count
Population (human MAL (human) [1]): 18.9%
B36: … (peptide)
peptide: AFLYTFLINLTHPTNF

NGS count (human MyD88 (human) [2]): 26700 count
Population (human MyD88 (human) [2]): 7.78%
NGS count (human MAL (human) [3]): 2280 count
Population (human MAL (human) [3]): 0.86%
B37: … (peptide)
peptide: DHHLDLPRGKAIKPEILG

NGS count (human MyD88 (human) [2]): 8310 count
Population (human MyD88 (human) [2]): 2.42%
NGS count (human MAL (human) [3]): 5130 count
Population (human MAL (human) [3]): 1.93%
B38: … (peptide)
peptide: LKWGDPYFWSKLRYAM

NGS count (human MyD88 (human) [2]): 2580 count
Population (human MyD88 (human) [2]): 0.75%
NGS count (human MAL (human) [3]): 1760 count
Population (human MAL (human) [3]): 0.66%
B39: … (peptide)
peptide: GFLYQAFAREGFKIFM

NGS count (human MyD88 (human) [2]): 79500 count
Population (human MyD88 (human) [2]): 23.1%
NGS count (human MAL (human) [3]): 30000 count
Population (human MAL (human) [3]): 11.3%
B40: … (peptide)
peptide: SSFREGLWRLLELSKK

NGS count (human MAL (human) [1]): 2070 count
Population (human MAL (human) [1]): 0.64%
B41: … (peptide)
peptide: KLIQGWFLYRLLKIEQ

NGS count (human MyD88 (human) [2]): 2500 count
Population (human MyD88 (human) [2]): 0.73%
B42: … (peptide)
peptide: PEKDNGGENAFINNIV

NGS count (human MAL (human) [1]): 3160 count
Population (human MAL (human) [1]): 0.97%
B43: … (peptide)
peptide: WFLFTVRSAIYAMSPA

NGS count (human MAL (human) [1]): 353 count
Population (human MAL (human) [1]): 0.11%
B44: … (peptide)
peptide: WFLTAFRMAMDQVADT

NGS count (human MAL (human) [1]): 2270 count
Population (human MAL (human) [1]): 0.7%
B45: … (peptide)
peptide: WFMMKFRTVLDHVNDV

NGS count (human MAL (human) [1]): 517 count
Population (human MAL (human) [1]): 0.19%
NGS count (human MyD88 (human) [2]): 7320 count
Population (human MyD88 (human) [2]): 2.13%
NGS count (human MAL (human) [3]): 1680 count
Population (human MAL (human) [3]): 0.63%
B46: … (peptide)
peptide: YLKWGYPWFWDRLRFA
